Consider 40 sequences from the supplement of paper PMC9170038.

The test system of series [1] is MS2 coat protein. Put plainly: apparent KD of MS2 coat protein, switch ON state; designed switch direction (-1 OFF switch, 1 ON switch): -1; higher = weaker reporter binding. Conditions: FMN input: 0 or 200 uM; Eterna round: R93 (includes R88 designs). The procedure, abridged:
(§1)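 Apparent KD stands for the median, per design, of fits to normalised cluster binding curves. The curves came from titrating on-chip-transcribed RNA switches on Illumina sequencing clusters with SNAP-549-labelled MS2 coat protein, twofold from 0.7 or 1.5 nM to 3 µM. Buffer was 100 mM Tris-HCl pH 7.5, 80 mM KCl, 4 mM MgCl2, without or with constant ligand.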

The subject of series [2] is MS2 coat protein. Put plainly: apparent KD of MS2 coat protein, switch OFF state (with FMN for OFF switches, without FMN for ON switches); designed switch direction (-1 OFF switch, 1 ON switch): -1; higher = weaker reporter binding. As to conditions: FMN input: 0 or 200 uM; Eterna round: R93 (includes R88 designs). In a few lines: as §1

On to “AUCAUCCUAGGAUAUACAUGGAUAUACAUUCAUGUGGACCUACAUGAGGAUCACCCAUGUAGAAGGAGGAUGAA [Mat - Same state - Mayanna Mod - D139]”, for which the “apparent KD of MS2 coat protein” value amounted to 36.7 nM in series [1] and 75.1 nM in series [2].

On to “AUCAUGUAAGGAUAUUAAAGAAAAGAAAAGAAAGAAAAGAAUAAGAAGGUACAUGAGGAUCACCCAUGUAAGAA [EteRNA is fun!]”, for which the “apparent KD of MS2 coat protein” value is 27 nM in series [1] and 17 nM in series [2].

Consider “AUCAUGUUAGGAUAUAAAAGAAAAGAAAAGAAAGAAAAGAAUUAGAAGGAACAUGAGGAUCACCCAUGUAAGAA [EteRNA is fun!]”, for which the “apparent KD of MS2 coat protein” value in series [1] was determined as 34.7 nM; in series [2], 26.5 nM.

Take “AUCGAUCGAGGAUAUACAUGAGGAUCACCCAUGUAAAGCAGAAGAAAGGCCUCAGGAUGUAGAAGGCGACGCAA [JR_Exc003_Sub404]”: the “apparent KD of MS2 coat protein” value stood at 17.1 nM in series [1] and 41.9 nM in series [2].

Take “AUCUUGUCAGGAUAUCGUAUAAUAUGGAAAACAUAGAGAUACGAGAAGGGACAUGAGGAUCACCCAUGUAAAAC [May 97]”: the results for the “apparent KD of MS2 coat protein” value in series [1] and in series [2] were 41.7 nM and 40 nM, respectively.

On to “AUUAAACAUGAGGAUCACCCAUGUGAGGAUAUGCAAAAAAAAUUAUAUUAAAAAAAAAGCAGAAGGCACAUAUA [coft]”, for which the “apparent KD of MS2 coat protein” value was 36.3 nM in series [1] and 62.3 nM in series [2].

Regarding “CAAAACAGAGGAUAUACAUGAGGAUCACCCAUGUAAAAAUGUAGAAGGCUGAAACAAACAAGAAGGAAACAAAA [Meechl Ex3 R2 m3]”, the “apparent KD of MS2 coat protein” value in series [1] turned out to be 23.7 nM; in series [2], 30.1 nM.

Regarding “CAGUACUGAGGAUAUACAUGAGGAUCACCCAUGUAAAAAAGCUACGAAAGUAGCAAAUGUAGAAGGCAGUACUG [Ex3: 804]”, the “apparent KD of MS2 coat protein” value in series [1] amounted to 15.5 nM; in series [2] it was 22.8 nM.

For the sequence “CCUAUGUCAGGAUAUCAGUAGUAAAAAAAAAAAAUUACUACUGAGAAGGGACAUGAGGAUCACCCAUGUCCCUU [EX4 309: Super Stable 9]”, the “apparent KD of MS2 coat protein” value amounted to 15.3 nM in series [1] and 14.3 nM in series [2].

As for “CUCAUGUAAGGAUAUAUAUGAAAUGAAGUGAAAGAAAAGAAAUAGAAGGUACAUGAGGAUCACCCAUGUUAGAA [EteRNA is fun!]”, the “apparent KD of MS2 coat protein” value in series [1] turned out to be 59.2 nM; in series [2], 38.7 nM.

With “CUCUAGUCAGGAUAUUCAAGAAAAGAAAAGAAAGAAAAGAAGAAGAAGGGACAUGAGGAUCACCCAUGUAAGAA [EteRNA is fun!]”, the “apparent KD of MS2 coat protein” value in series [1] was 46.7 nM; in series [2] it was 46.5 nM.

As to “CUCUUGUAAGGAUAUUAAUGAAAUGAAGUGAAAGAAAAGAAUAAGAAGGUACAUGAGGAUCACCCAUGUUAGAA [EteRNA is fun!]”, the “apparent KD of MS2 coat protein” value came to 28.9 nM in series [1] and 27 nM in series [2].

Consider “CUCUUGUCAGGAUAUAGAAGAAAAGAAAAGAAAGAAAAGAACUAGAAGGGACAUGAGGAUCACCCAUGUAAGAA [EteRNA is fun!]”, for which the “apparent KD of MS2 coat protein” value worked out at 87.5 nM in series [1] and 62.9 nM in series [2].

With “CUCUUGUCAGGAUAUCUAAGAAAAGAAGAGAAAGAAAAGAAAGAGAAGGGACAUGAGGAUCACCCAUGUAAGAA [EteRNA is fun!]”, the entries for the “apparent KD of MS2 coat protein” value in series [1] and in series [2] were 59.3 nM and 32.4 nM, respectively.

“CUCUUGUCAGGAUAUGUAAGAAAAGAAGAGAAAGAAAAGAAACAGAAGGGACAUGAGGAUCACCCAUGUAAGAA [EteRNA is fun!]”: the “apparent KD of MS2 coat protein” value is 66.4 nM in series [1] and 77 nM in series [2].

On to “CUCUUGUGAGGAUAUCCAUGAAAUGAAGUGAAAGAAAAGAAGGAGAAGGCACAUGAGGAUCACCCAUGUUAGAA [EteRNA is fun!]”, for which the “apparent KD of MS2 coat protein” value in series [1] was found to be 49.6 nM; in series [2] it was 24.3 nM.

As for “CUUAUGUAAGGAUAUCAGUAGUAAAAAAAUAAAAUUACUACUGAGAAGGUACAUGAGGAUCACCCAUGUCCGGG [EX4 375: Super Stable 75]”, the results for the “apparent KD of MS2 coat protein” value in series [1] and in series [2] were 74.3 nM and 24.7 nM, respectively.

“GAAAAACAUGAGGAUCACCCAUGUAAGGAUAUGCGAAAAUAAAAUAAAAUAAAAUAAAGCAGAAGGUACAAAAA [Mat - Exclusion 1 - Eli mod - D1]”: the “apparent KD of MS2 coat protein” value turned out to be 29.5 nM in series [1] and 40.5 nM in series [2].

On to “GAAAAACAUGAGGAUCACCCAUGUAAGGAUAUGCUAAAAAACACGGAAAAACGUGAUAGCAGAAGGUACAAAAA [Mat - Exclusion 1 - Eli mod - D89]”, for which the “apparent KD of MS2 coat protein” value in series [1] came out at 24.1 nM; in series [2], 36.5 nM.

For the sequence “GAAAAACAUGAGGAUCACCCAUGUAAGGAUAUGCUAAAAAACACGGAAAACGUGAAUAGCAGAAGGUACAAAAA [Mat - Exclusion 1 - Eli mod - D86]”, the “apparent KD of MS2 coat protein” value in series [1] is 20.6 nM; in series [2], 23.6 nM.

As to “GAAAAACAUGAGGAUCACCCAUGUAAGGAUAUGCUAAAAAACACGGAAAACGUGAAUAGCAGAAGGUACAAAAG [Mat - Exclusion 1 - Eli mod - D85]”, the “apparent KD of MS2 coat protein” value was found to be 25 nM in series [1] and 46.8 nM in series [2].

On to “GAAAAACAUGAGGAUCACCCAUGUAAGGAUAUGCUGAAAAACACGGAAAAAACGUGCAGCAGAAGGUACAAAAG [Mat - Exclusion 1 - Eli mod - D91]”, for which the “apparent KD of MS2 coat protein” value was determined as 16.7 nM in series [1] and 131 nM in series [2].

For “GAAAAACAUGAGGAUCACCCAUGUAAGGAUAUGCUGAAAAACACGGAAAAACGUGACAGCAGAAGGUACAAAAG [Mat - Exclusion 1 - Eli mod - D94]”, the “apparent KD of MS2 coat protein” value in series [1] worked out at 18.3 nM; in series [2], 40 nM.

Regarding “GAAAACCUAGGAUAUACAUGAGGAUCACCCAUGUCAGUAGACUGGGUAAGGUCUCUCAGUAGAAGGAGGACCCA [Ratilein]”, the “apparent KD of MS2 coat protein” value in series [1] came out at 315 nM; in series [2], 318 nM.

For the sequence “GAAAACUGAGGAUAUACUUUGGGAAAAGAAAAGAUGAUGUUACAUGAGGAUCACCCAUGUAGAAGGCAGAAAAA [Default title]”, the “apparent KD of MS2 coat protein” value in series [1] stood at 26.4 nM; in series [2], 39.4 nM.

For “GAAAAGCAAGGAUAUACAUGAGGAUCACCCAUGUAACCUGAAAGCAUGAUCGGUGACAGUAGAAGGUGCGAAAU [Tixegerice]”, the “apparent KD of MS2 coat protein” value in series [1] turned out to be 22.3 nM; in series [2] it was 56.9 nM.

In the case of “GAAAAGCAAGGAUAUACAUGAGGAUCACCCAUGUGGAAUGGCGUGACCUAAAGAAAAGGUAGAAGGUGCACGUG [Soangebi]”, the “apparent KD of MS2 coat protein” value in series [1] was 166 nM; in series [2], 341 nM.

Regarding “GAAAAGUCAGGAUAUGCGAAGGCGUCUGAUAGACGAGGCUAGCAGAAGGGACAUGAGGAUCACCCAUGUGGAAG [Mat - Exclusion 4 - Eli mod - D90]”, the results for the “apparent KD of MS2 coat protein” value in series [1] and in series [2] were 76.5 nM and 157 nM, respectively.

With “GAAAAGUGAGGAUAUACUUUGGGAAAAGAAAAGAUGAUGUUACAUGAGGAUCACCCAUGUAGAAGGCACAAAAA [Mat - Exclusion 2 - Mod - D155]”, the “apparent KD of MS2 coat protein” value came out at 25.2 nM in series [1] and 38.1 nM in series [2].

In the case of “GAAAAGUGAGGAUAUUCGGAUAGGAAAACGAAAACCUAUCCGAAGAAGGCACAUGAGGAUCACCCAUGUAAAAG [Mat - Exaclusion 4 - Eli mod - D36]”, the results for the “apparent KD of MS2 coat protein” value in series [1] and in series [2] were 41.2 nM and 51.9 nM, respectively.

In the case of “GAAAGUGGAGGAUAUACAUGAGGAUCACCCAUGUGUAAAAAUAAAAACACAAAAGAAAGUAGAAGGCCACAAAG [Mat - Exclusion 3 - Mayanna mod - D116]”, the “apparent KD of MS2 coat protein” value in series [1] came out at 22.9 nM; in series [2], 49.2 nM.

In the case of “GAGAGACAUGAGGAUCACCCAUGUGAGGAUAUCGGGAGGAGGAGGAGGAGGAGGAGGACGAGAAGGCACGGAAG [salish99-Ex1-06]”, the “apparent KD of MS2 coat protein” value in series [1] turned out to be 21.6 nM; in series [2] it was 35.3 nM.

As to “GAGGCUGAAGGAUAUACAAGGGCCUCACCGCCAAGGCGGAAACAUGAGGAUCACCCAUGUAGAAGGUCAAUAAA [Usrisore]”, the “apparent KD of MS2 coat protein” value is 140 nM in series [1] and 103 nM in series [2].

“GCUGGCCUAGGAUAUACAUGAGGAUCACCCAUGUGAGAGAAAAAAGUGAGAAAGAAAAGUAGAAGGAGGUUAGG [salish99-ex3-115]”: the “apparent KD of MS2 coat protein” value in series [1] amounted to 50.2 nM; in series [2], 57.2 nM.

Consider “GGAAAACAUGAGGAUCACCCAUGUGAGGAUAUUGAAACAAACAAAACAAACAAACAAACAAGAAGGCACAGGAA [Exclusion one redone]”, for which the “apparent KD of MS2 coat protein” value was determined as 20.7 nM in series [1] and 20.1 nM in series [2].

Regarding “GGAGGGCAAGGAUAUACAUGAGGAUCACCCAUGUGAGAGAAAAAAGUGAGAAAGAAAAGUAGAAGGUGCUUUCG [salish99-ex3-130]”, the “apparent KD of MS2 coat protein” value in series [1] is 38.8 nM; in series [2] it was 47.8 nM.

Regarding “GGAUGCGUAGGAUAUACAUGAGGAUCACCCAUGUGAGAGAAAAAAGUGAGAAAGAAAAGUAGAAGGACGUGUCG [salish99-ex3-90]”, the “apparent KD of MS2 coat protein” value turned out to be 34.9 nM in series [1] and 85.6 nM in series [2].

Regarding “GGAUGGGAAGGAUAUACAUGAGGAUCACCCAUGUGAGAGAAAAAAGUGAGAAAGAAAAGUAGAAGGUCUUGUCG [salish99-ex3-85]”, the “apparent KD of MS2 coat protein” value in series [1] came to 82.5 nM; in series [2], 99.1 nM.

Take “GGUUGCGUAGGAUAUACAUGAGGAUCACCCAUGUGAGAGAAAAAAGUGAGAAAGAAAAGUAGAAGGACGUGACG [salish99-ex3-125]”: the “apparent KD of MS2 coat protein” value in series [1] is 29.7 nM; in series [2], 57.9 nM.

For the sequence “GGUUGGCGAGGAUAUACAUGAGGAUCACCCAUGUGAGAGAAAAAAGUGAGAACGAAAAGUAGAAGGCGCUGACG [salish99-ex3-25]”, the “apparent KD of MS2 coat protein” value in series [1] was 23.5 nM; in series [2], 1340 nM.
